The target of test [1] is RSV F DS-Cav1 (human RSV subtype A (strain A2)) (UniProt P03420). In words: BLI (Octet), F on Ni-NTA tips, Fab in solution. A general note: In BLI a coated tip is dipped into the sample, and binding shifts an interference pattern.
In test [2] the target is RSV F sc9 DS-Cav1 (human RSV subtype A (strain A2)). In words: BLI (Octet), F on Ni-NTA tips, Fab in solution.
The target in test [3] is RSV F sc9-10 DS-Cav1 (human RSV subtype A (strain A2)). In words: BLI (Octet), F on Ni-NTA tips, Fab in solution.
For test [4], the target named is RSV F sc9-9 DS-Cav1 (human RSV subtype A (strain A2)) (UniProt P03420). In words: BLI (Octet), F on Ni-NTA tips, Fab in solution.
Test [5] concerns the target sc10 DS-Cav1. In words: BLI (Octet), F on Ni-NTA tips, Fab in solution.
For test [6], the target named is sc11 DS-Cav1. In words: BLI (Octet), F on Ni-NTA tips, Fab in solution.
The target of test [7] is sc9 DS-Cav1-105Q. In words: BLI (Octet), F on Ni-NTA tips, Fab in solution.
Test [8] addresses sc9-10 A DS-Cav1 A149C, Y458C. In words: BLI (Octet), F on Ni-NTA tips, Fab in solution.
The target in test [9] is sc9-10 DS-Cav1 A149C, Y458C S46G-E92D-S215P-K465Q (A2). In words: BLI (Octet), F on Ni-NTA tips, Fab in solution.
Test [10] addresses sc9-10 DS-Cav1 A149C, Y458C S46G-N67I-E92D-S215P-K465Q (A2). In words: BLI (Octet), F on Ni-NTA tips, Fab in solution.
Test [11] addresses sc9-10 DS-Cav1 A149C, Y458C S46G-S215P-K465Q (A2). In words: BLI (Octet), F on Ni-NTA tips, Fab in solution.
Test [12] addresses sc9-10 DS-Cav1 N183GC, N428C S46G-N67I-E92D-S215P-K465Q (A2). In words: BLI (Octet), F on Ni-NTA tips, Fab in solution.
The target of test [13] is sc9-10 DS-Cav1 N183GC,N428C. In words: BLI (Octet), F on Ni-NTA tips, Fab in solution.
Test [14] has as its target sc9-10 DS-Cav1 Q98C, Q361C L95M-I221M-R429K (B18537). In words: BLI (Octet), F on Ni-NTA tips, Fab in solution.
Test [15] addresses sc9-10 DS-Cav1 Q98C, Q361C S46G-E92D-L95M-S215P-I217P-I221M-R429K-K465Q (Long (VR26)). In words: BLI (Octet), F on Ni-NTA tips, Fab in solution.
For test [16], the target named is sc9-19 DS-Cav1. In words: BLI (Octet), F on Ni-NTA tips, Fab in solution.
The target in test [17] is sc9-24 DS-Cav1. In words: BLI (Octet), F on Ni-NTA tips, Fab in solution.
The target of test [18] is RSV F DS-Cav1 (human RSV subtype A (strain A2)) (UniProt P03420). In words: ELISA after 1 week at 4 °C. Background: An ELISA detects its analyte on a solid surface through an enzyme-linked reagent.
Test [19] concerns the target RSVF Cav1only. In words: ELISA after 1 week at 4 °C.
Test [20] deals with RSVF dFP. In words: ELISA after 1 week at 4 °C.
For test [21], the target named is sc9-10 A149C Y458C Long CAV1only. In words: ELISA after 1 week at 4 °C.
Test [22] addresses sc9-10 Cav1only 100-360. In words: ELISA after 1 week at 4 °C.
Test [23] addresses sc9-10 Cav1only 100-361. In words: ELISA after 1 week at 4 °C.
Test [24] has as its target sc9-10 Cav1only 100-362. In words: ELISA after 1 week at 4 °C.
In test [25] the target is sc9-10 Cav1only 146-458. In words: ELISA after 1 week at 4 °C.
The target in test [26] is sc9-10 Cav1only 369-455. In words: ELISA after 1 week at 4 °C.
In test [27] the target is sc9-10 Cav1only 98-360. In words: ELISA after 1 week at 4 °C.
The target in test [28] is sc9-10 Cav1only 98-361. In words: ELISA after 1 week at 4 °C.
Test [29] deals with sc9-10 Cav1only 98-362. In words: ELISA after 1 week at 4 °C.
For test [30], the target named is sc9-10 Cav1only 99-360. In words: ELISA after 1 week at 4 °C.
Test [31] addresses sc9-10 Cav1only 99-361. In words: ELISA after 1 week at 4 °C.
For test [32], the target named is sc9-10 Cav1only 99-362. In words: ELISA after 1 week at 4 °C.
Test [33] addresses sc9-10 Cav1only. In words: ELISA after 1 week at 4 °C.
The target in test [34] is sc9-10 N183GC N428C Long CAV1only. In words: ELISA after 1 week at 4 °C.
Test [35] deals with RSV F DS-Cav1 (human RSV subtype A (strain A2)) (UniProt P03420). In words: BLI (Octet), antibody reactivity over time at 60 °C.
Test [36] has as its target sc9-10 A DS-Cav1 A149C, Y458C. The test is described as above.
For test [37], the target named is sc9-10 DS-Cav1 A149C, Y458C S46G-E92D-S215P-K465Q (A2). Described as above.
The target of test [38] is sc9-10 DS-Cav1 A149C, Y458C S46G-N67I-E92D-S215P-K465Q (A2). Described as above.
The target of test [39] is sc9-10 DS-Cav1 A149C, Y458C S46G-S215P-K465Q (A2). Described as above.
Test [40] addresses sc9-10 DS-Cav1 N183GC, N428C S46G-N67I-E92D-S215P-K465Q (A2). The test is described as above.
In test [41] the target is sc9-10 DS-Cav1 N183GC,N428C. Described as above.
In test [42] the target is sc8 DS-Cav1. In words: BLI (Octet), F on Ni-NTA tips, Fab in solution.

A value given as a limit tells only on which side of the number the result lay.

Results on six substances are retold here after patent publication US20190112340A1.

In general, Kd refers to the constant that tells how readily two partners part at equilibrium. Read a low Kd as a tighter complex. On to 5C4 (Fab), for which the Kd in test [1] was 13 nM; in [2], 31.3 nM; in test [3] it was 26.2 nM; in test [4] it was 17.9 nM; in [5] it was 38.1 nM; in test [6] it was 58.8 nM. For the same substance, the Kd in test [7] came to 28.8 nM; in [8], 32.1 nM; in test [9], 315 nM; in test [10] it was 127 nM; in test [11], 92.2 nM; in test [12], 79.7 nM. Also, the Kd in test [13] is 14 nM; in test [14], 101 nM; in test [15], 35.8 nM; in test [16] it was 22.6 nM; in test [17], 20.8 nM.

AM14 antibody: the ELISA signal (antigenicity) in test [18] was found to be 1.71; in [19], 2.81; in [20] it was 0.05; in [21], 0.211; in [22], 0.344; in test [23] it was 0.0969. Further, the ELISA signal (antigenicity) in test [24] was determined as 0.0541; in [25], 0.102; in [26], 0.0785; in test [27], 0.199; in test [28], 0.356; in test [29], 0.516. The ELISA signal (antigenicity) in test [30] turned out to be 0.0553; in [31], 2.64; in [32], 0.805; in [33], 3.31; in test [34], 0.0514. Moreover, the T1/2 of AM14 reactivity at 60 °C amounted to 1.4 h in [35]; 7.8 h in [36]; 8.3 h in [37]; 7.5 h in test [38]; 6 h in [39]; 27.1 h in test [40]. Moreover, the T1/2 of AM14 reactivity at 60 °C in [41] amounted to 33.8 h.

Consider AM22 (Fab), for which the Kd in test [1] was under 0.01 nM; in test [2], under 0.01 nM; in test [3] it was under 0.01 nM; in [4], 2.8 nM; in [5] it was 0.3 nM; in test [6], 1.6 nM. Further, the dissociation constant Kd in [42] was 3.9 nM; in test [7], under 0.01 nM; in test [8], 0.1 nM; in [9], 0.3 nM; in [10] it was 0.2 nM; in test [11] it was 0.5 nM. The Kd in test [12] was 0.4 nM; in [13], 0.2 nM; in test [14] it was 0.1 nM; in test [15], 0.1 nM; in test [16] it was 0.06 nM; in test [17], 0.3 nM.

Turning to D25 antibody, the ELISA signal (antigenicity) in test [18] was found to be 2.13; in test [20], 0.902; in test [22] it was 1.76; in test [27], 1.14; in test [30], 1.4. Besides, the T1/2 of D25 reactivity at 60 °C in test [35] is 3.2 h; in [36], 16.5 h; in test [37], 26.7 h; in test [38], 26.4 h; in test [39], 23.4 h; in [40] it was 23.3 h. In addition, in test [41], the T1/2 of D25 reactivity at 60 °C was 42.4 h.

For MPE8 (antibody), the ELISA signal (antigenicity) was 2.16 in test [18]; 3.08 in test [19]; 2.77 in test [20]; 2.5 in test [21]; 1.28 in test [22]; 0.786 in [23]. In addition, the ELISA signal (antigenicity) in [24] was determined as 0.298; in test [25] it was 1.85; in [26], 2.32; in [27], 0.734; in test [28], 1.4; in test [29], 0.845. Further, the ELISA signal (antigenicity) came to 0.625 in [30]; 2.66 in [31]; 1.28 in test [32]; 3.54 in test [33]; 0.228 in [34]. Besides, the T1/2 of MPE8 reactivity at 60 °C in test [35] amounted to 2 h; in test [36], 14.4 h; in test [37] it was 12.6 h; in test [38], 12.7 h; in [39] it was 11.2 h; in [40], 35.1 h. Moreover, in test [41], the T1/2 of MPE8 reactivity at 60 °C amounted to 48.3 h.

For Mota (antibody), the ELISA signal (antigenicity) was found to be 1.72 in test [18]; 3.35 in test [19]; 3.42 in test [20]; 2.55 in test [21]; 1.61 in test [22]; 2.8 in test [23]. Also, the ELISA signal (antigenicity) in test [24] was found to be 1.53; in test [25], 1.95; in [26], 2.5; in [27], 1.04; in test [28], 2.24; in test [29], 0.828. For the same substance, the ELISA signal (antigenicity) in test [30] was 1.11; in test [31] it was 2.71; in [32] it was 1.38; in test [33], 3.59; in [34], 2.07.
